Measured values as given in the RNAGym collection of RNA variant scans (doi:10.7554/elife.90254).

B1: OR4K15 (parent)
chain: GUUAACGGUCAUAGGCCAUGGAAACUAGGAGCACCAUUUCGCUGCCAGUGAAGAAAUGAACAAAGAAAAUCUGGGCCAGGCAGGCAUCAAAAGAAAUAGUCUUGCGCUCAACCAGAAAGUCUGUAAUCAUUUUAAGGGUA

Variants of: B1
Assay: self-cleavage, relative activity (ratio to wild type); higher = more cleavage; in vitro, sequencing; the parent is a self-cleaving ribozyme

Row | Variant | self-cleavage
1 | GUUAACGGUCAUAGGCCAUGGAGACUAGGAGCACCGUUUCGCUGCCAGUGAAGAAAUGAACAAAGAAAAUCUGGGCCAGGCAGGCAUCAAAAGAAAUAGUCUUGCGCUCAACCAGAAAGUCUGUAAUCAUUUUAAGGGUA [A23G A36G] | 1.43
2 | GUUAACGGUCAUAGGCCAUGGAAACUAGGAGCACCAUUUCGCUGCCAGUGAAGAAAUGAGCAAAGAAAAUCUGGGCCAGGCAGGCAUCAAAAGAAAUAGUCUUGCGCUCAACCAGAAAGUCUGUUAUCAUUUUAAGGGUA [A60G A125U] | 2.64
3 | GUUAACGGUCAUAGGCCACGGAAACUAGGAGCACCAUUUCGCUGCCAGUGAAGAAAUGAACAAAGAAAAUCUGGGCCAGGCAGGCAUCAAAAGAAAUAGUCUUGCGCUCAACCAGAAAGUCUGUAAUCAUUUUAUGGGUA [U19C A135U] | 1.5
4 | GCUAACGGUCAUAGGCCAUGGAAACUAGGAGCACCAUUUCGCUGCCAGUGAAGAAAUGUACAAAGAAAAUCUGGGCCAGGCAGGCAUCAAAAGAAAUAGUCUUGCGCUCAACCAGAAAGUCUGUAAUCAUUUUAAGGGUA [U2C A59U] | 0.98
5 | GUUAACGGUCAUAGGGCAUGGAAACUAGGAGCACCAUUUCGCUGCCAGUGAAGAAAUGAACAAAGGAAAUCUGGGCCAGGCAGGCAUCAAAAGAAAUAGUCUUGCGCUCAACCAGAAAGUCUGUAAUCAUUUUAAGGGUA [C16G A66G] | 1.14
6 | GUUAACGGUCAUGGGCCAUGGAAACUAGGAGCACCAUUUCACUGCCAGUGAAGAAAUGAACAAAGAAAAUCUGGGCCAGGCAGGCAUCAAAAGAAAUAGUCUUGCGCUCAACCAGAAAGUCUGUAAUCAUUUUAAGGGUA [A13G G41A] | 0.97
7 | GUUAACGGUCAUAGGCCAUGGAAACUAGGAGCACCAUUUCGCUGCCAGUGAAGAAAUGAACAAAGAAAAUCUGGGCCAGGCAGGCAUCAAAAGAAAUAGUCUUGCGCUCAACCGGAAAGUCUGCAAUCAUUUUAAGGGUA [A114G U124C] | 0.07
8 | GUUAACGGUCAUAGGCCAUGGAAACUAGGAGCACCAUUUCGCUGCCAGUGAAGAAAUGAACAAAGAAAAUCUGGGCCAGGCAGGCAUCAAAAGAAAUAGUCUUGCGCUCAACCAGAAUGUCUGUGAUCAUUUUAAGGGUA [A118U A125G] | 0.86
9 | GUUAACGGUCAUAGGCCAUGGAAACUAGGAGCACCAUUUCGCUGCCAGUGAAGGAAUGAACAAAGAAAAUCUGGGCCAGGCAGGCAUCAAAAGAAAUAGUCUUGCGCUCAACCAGAAAGUCCGUAAUCAUUUUAAGGGUA [A54G U122C] | 1
10 | GUUAACGGUCAUAGGCCAUGGAAACUAGGAGCACCAUUUCGCUGCCAGUGAAGAAAUGAACAAAGAAAAUCUGGGCCAGGCAGGCUUCAAAAGAAAUAGUCUUGCGCCCAACCAGAAAGUCUGUAAUCAUUUUAAGGGUA [A86U U108C] | 0.02
11 | GUUAACGGUCAUAGGCCAUGGAAACUAGGAGCACCAUUUCGCUGCCAGUGAAGAAAUGAACAUAGAAAAUCUGGGCCAGGCAGGCAUCAAAAGAAAUUGUCUUGCGCUCAACCAGAAAGUCUGUAAUCAUUUUAAGGGUA [A63U A98U] | 1.84
12 | GUUAACGGUCAUAGGCCAUGGAAACUAGGAGCACCAUUUCGCUGCCAGUGAAGAAAUGAUCAAAGGAAAUCUGGGCCAGGCAGGCAUCAAAAGAAAUAGUCUUGCGCUCAACCAGAAAGUCUGUAAUCAUUUUAAGGGUA [A60U A66G] | 1.63
13 | GUUAACGGUCAUAGGCCAUGGAAACUAGGAGCACCAUUUCGCUGCCAGCGAAGAAAUGAACAAAGAAAAUCUGGGCCAGGCAGGCAUCAAAAGAAAUAGUCUUGCGCACAACCAGAAAGUCUGUAAUCAUUUUAAGGGUA [U49C U108A] | 0.01
14 | GUUAACGGUCAUAGGCCAUGGAAACUAGGAGCACCAUUUCGCUGCCAGUGAAGAAAUGAACAAAGAAAAUCUGGGCCAGGCAGGCAUCAAAAGAAAUAGUCUUGCGCUCCACCUGAAAGUCUGUAAUCAUUUUAAGGGUA [A110C A114U] | 0.01
15 | GUUAACGGUCAUAGGCCAUGGAAACUAGGAGCGCCAUUUCGCUGCCAGUGAAGAAAUGAACAAAGAAAAUCUGGGCCAGGCAGGCAUCAAAAGAAAUAGUCUUGCGCUCAACCAGAAAGGCUGUAAUCAUUUUAAGGGUA [A33G U120G] | 0.65
16 | GUUAACGGUCAUAGGCCAUGGAAACUAGGAGCACCAUUUCGCUGCCAGUGAAGAAAUGAACAAAGAAAAUCUGGGCCAGGCAGGCAUCAAAUGAAAUAGUCUUGCGCUCAACCAGAAUGUCUGUAAUCAUUUUAAGGGUA [A92U A118U] | 0.74
17 | GAUAACGGUCAUAGGCCAUGGAAACUAGGAGCACCAUUUCGCUGCCAGUGAAGAAAUGAACAAAGAAAAUCUGGGCCAGGCAGGCAUCAAAAGAAAUAGUCCUGCGCUCAACCAGAAAGUCUGUAAUCAUUUUAAGGGUA [U2A U102C] | 1.15
18 | GUUAACGGUCAUAGGCCAUGAAAACUUGGAGCACCAUUUCGCUGCCAGUGAAGAAAUGAACAAAGAAAAUCUGGGCCAGGCAGGCAUCAAAAGAAAUAGUCUUGCGCUCAACCAGAAAGUCUGUAAUCAUUUUAAGGGUA [G21A A27U] | 1.32
19 | GUUAACGGUCAUAGGCCAUGGAAACUAGGAGCACCAUUUCGCUGCCAGUGAAGAGAUGAACAAAGAAAAUCUGGGCCAGGCAGGCGUCAAAAGAAAUAGUCUUGCGCUCAACCAGAAAGUCUGUAAUCAUUUUAAGGGUA [A55G A86G] | 1.17
20 | GUUAACGGUCAUAUGCCAUGGAAACUAGGAGCACCAUUUCGCUGCCAAUGAAGAAAUGAACAAAGAAAAUCUGGGCCAGGCAGGCAUCAAAAGAAAUAGUCUUGCGCUCAACCAGAAAGUCUGUAAUCAUUUUAAGGGUA [G14U G48A] | 1.52
21 | GUUAACGGUCAUAUGCCAUGGAAACUAGGAGCACCACUUCGCUGCCAGUGAAGAAAUGAACAAAGAAAAUCUGGGCCAGGCAGGCAUCAAAAGAAAUAGUCUUGCGCUCAACCAGAAAGUCUGUAAUCAUUUUAAGGGUA [G14U U37C] | 1.24

Row | Variant | self-cleavage
22 | GUUAACGGUCAUAGGCCAUGGAAACUAGGAGCACCAUUUCGCUGCCAGUGAAGAAAUGAACAAAGAAAAUCUGGGCCAGGCAGGCAUCAAAAGAAAUAGUCCUGUGCUCAACCAGAAAGUCUGUAAUCAUUUUAAGGGUA [U102C C105U] | 1.01
23 | GUUAACGGUCAUAGGCCAUGGAAACUAGGAGCACCAUUUCGCUGCCAGUGAAGAAAUGAACAAAGAAAGUCUGGGCCAGGCAGGCAUCGAAAGAAAUAGUCUUGCGCUCAACCAGAAAGUCUGUAAUCAUUUUAAGGGUA [A69G A89G] | 0.86
24 | GUUAACGGUCAUAGGCCAUGGAAACUUGGAGCACCAUUUCGCUGCCAGUGAAGAAAUGAACAAAGAAAAUCUGGGCCAGGCAGGCAUCAAAGGAAAUAGUCUUGCGCUCAACCAGAAAGUCUGUAAUCAUUUUAAGGGUA [A27U A92G] | 1.83
25 | GUUAACGGUCAUAGGCCAUGGAAACUAGGAGCACCACUACGCUGCCAGUGAAGAAAUGAACAAAGAAAAUCUGGGCCAGGCAGGCAUCAAAAGAAAUAGUCUUGCGCUCAACCAGAAAGUCUGUAAUCAUUUUAAGGGUA [U37C U39A] | 1.55
26 | GUUAACGGUCAUAGGCCAUGGAAACUAGGAGCACCAUUUCGGUGCCUGUGAAGAAAUGAACAAAGAAAAUCUGGGCCAGGCAGGCAUCAAAAGAAAUAGUCUUGCGCUCAACCAGAAAGUCUGUAAUCAUUUUAAGGGUA [C42G A47U] | 1.02
27 | GUUAACGGUCAUAGGCCAUGGAAACUAGGAGCACCAUUUCGCUGCCAGUGAAGAAAUGGACAAAGAAAAUCUGGGCCAGGCAGGCAUCAAAAGAAGUAGUCUUGCGCUCAACCAGAAAGUCUGUAAUCAUUUUAAGGGUA [A59G A96G] | 1.66
28 | GUUAACGGUCAUAGGCCAUGGAAACUAGGAGCACCAUUUCGCUGCCAGUGAAGAAAUGAACAAAGAAAAUCUGGGCCAGGCAGGCAUCAAAAGAAAUAGUCUUGCGCCCAACCAGAAAGUCUGUAAUCAUUUUAGGGGUA [U108C A135G] | 0.01
29 | GUUAACGGUCAUAGGCCAUGGAAACUAGGAGCACCAUUUCGCUGCCAGUGAAGAAAUGAACAAUGAAAAUCUGGGCCAGGCAGGCAUCAAAAGAAAUAGACUUGCGCUCAACCAGAAAGUCUGUAAUCAUUUUAAGGGUA [A64U U100A] | 0.29
30 | GUUAACGGUCAUAGGCCGUGGAAACUAGGAGCACCAUUUCGCUGCCAGUGAAGAAAUGAACAAAGAAAAUCUGGGCCAGGCAGGCAUCAAAAGAAAUAGUCUUGCGCUCAACCAGAAAGUCUGUAAUCAUUUUAAGGGAA [A18G U139A] | 1.83
31 | GUUAACGGUCAUAGGCCAUGGAAACUAGGAGCACUAUUUCGCAGCCAGUGAAGAAAUGAACAAAGAAAAUCUGGGCCAGGCAGGCAUCAAAAGAAAUAGUCUUGCGCUCAACCAGAAAGUCUGUAAUCAUUUUAAGGGUA [C35U U43A] | 0.61
32 | GUUAACGGUCAUAGGCCAUGGAAACUAGGAGCACCAUUUCGCUGCCAGUGAAGAAAUGAACAAAGAAAAUCUGGGCCAGGCAGGCACCAAAAGAAAUAGUCUUGCGCUCAACCAGAAAGUCCGUAAUCAUUUUAAGGGUA [U87C U122C] | 1.07
33 | GUCAACGGUCAUAGGCCAUGGAAACUAGGAGCACCAUUUCGCUGCCAGUGAAGAAAUGAACAAAGAAAAUCUGGGCCAGGCAGGCAUCAAAAGAAAUAGUCUUGCGCUCAACCAGAAAGUCUGUAAUCAUUUUAAGGGUA [U3C] | 1.1
34 | GUUAACGGUCAUAGGCCAUGGAAACUAGGAGCACCAUUCCGCUGCCAGUGAAGAAAUGAACAAAGAAAAUCUGGGCCAGGCAGGCAUCAAAAGAAAUAGUCUUGCGCUCAACCAGAAAGUCAGUAAUCAUUUUAAGGGUA [U39C U122A] | 1.58
35 | GUUAACGGUCAUAGGCCAUGGAAACUAGGAGCACCAUUUCGCUGCCAGUGAAGAAAUGAACAAAGAAAAUCAGGGCCAGGCAGGCAUCAAAAGAAAUAGUCUUGCGCCCAACCAGAAAGUCUGUAAUCAUUUUAAGGGUA [U72A U108C] | 0.01
36 | GUUAACGGUCAUAGGCCAUGGAAACUAGGAGCACCGUUUCGCUGCCAGUGAAGAAAUGAACGAAGAAAAUCUGGGCCAGGCAGGCAUCAAAAGAAAUAGUCUUGCGCUCAACCAGAAAGUCUGUAAUCAUUUUAAGGGUA [A36G A62G] | 1.94
37 | GUUAACGGUCAUAGGCCAUGGAAACUAGGAGCACCAUUUCGCUGCCAGUGCAGAAAUGAACAAAGAAAAUCUGGGCCGGGCAGGCAUCAAAAGAAAUAGUCUUGCGCUCAACCAGAAAGUCUGUAAUCAUUUUAAGGGUA [A51C A78G] | 0.24
38 | GUUAUCGGUCAUAGGCCAUGGAAACUAGGAGCGCCAUUUCGCUGCCAGUGAAGAAAUGAACAAAGAAAAUCUGGGCCAGGCAGGCAUCAAAAGAAAUAGUCUUGCGCUCAACCAGAAAGUCUGUAAUCAUUUUAAGGGUA [A5U A33G] | 0.69
39 | GCUAACGGUCAUAGGCCAUGGAAACUAGGAGCACCAUUUCGCUGCCAGUGAAGAAAUGAACAAAGAAAAUCCGGGCCAGGCAGGCAUCAAAAGAAAUAGUCUUGCGCUCAACCAGAAAGUCUGUAAUCAUUUUAAGGGUA [U2C U72C] | 0.15
40 | GUUAAUGGUCAUAGGCCAUGGAAACUAGGAGCACCAUUUCGCUGCCAGUGAAGAAGUGAACAAAGAAAAUCUGGGCCAGGCAGGCAUCAAAAGAAAUAGUCUUGCGCUCAACCAGAAAGUCUGUAAUCAUUUUAAGGGUA [C6U A56G] | 0.64
41 | GUUAACGGUCAUAGGCCAUGGAAACUAGGAGCACCAUUUCGCCGCCAGUGAAGAAAUGAACAAAGAAAAUCUGGGCCAGGCAGGCAUCAAAAGAAAUAGUCUUGCGCUCAAUCAGAAAGUCUGUAAUCAUUUUAAGGGUA [U43C C112U] | 0
